Biological target: T1, recombinant human Tau monomer, 2N4R isoform (amino acids 2-441) (human, UniProt P10636-8 2-441)
T1 construct: range 2-441; N-terminal His-tag removed with TEV protease; also called monomeric Tau
Test: SPR screen, hIgG captured, Tau monomer analyte
From the text: Antibody 125B11-H3 was humanized onto VH3 and Vκ1 consensus frameworks. The heavy chain graft included murine residues at position 78 (Kabat numbering system). The Vκ1 graft included murine residues in framework positions 43 and 87. The light chain of 113F5-F7 was also humanized onto the Vκ1 framework, with additional murine residues at framework positions 43 and 87. Humanized variant heavy chains (125B11) and light chains (125B11 and 113F5-F7) were co-transfected in multiple combinations and purified in 96-well format as described above. Humanized variants were then screened for affinity for human Tau monomer using the Biacore human IgG capture kit, a Series S CM5 chip and a Biacore T200 instrument. Antibodies were diluted to 2 μg/ml and captured for 15 seconds at 10 μl/min. Association and dissociation of 0, 100 and 500 nM human Tau monomer in HBSP was monitored for 180s and 300s respectively at a flow rate of 40 μl/min. A 1:1 binding model was applied to the results (Table 9).

T1 sequence (P10636 other isoform, or with tags, fused parts or gaps limits assumed): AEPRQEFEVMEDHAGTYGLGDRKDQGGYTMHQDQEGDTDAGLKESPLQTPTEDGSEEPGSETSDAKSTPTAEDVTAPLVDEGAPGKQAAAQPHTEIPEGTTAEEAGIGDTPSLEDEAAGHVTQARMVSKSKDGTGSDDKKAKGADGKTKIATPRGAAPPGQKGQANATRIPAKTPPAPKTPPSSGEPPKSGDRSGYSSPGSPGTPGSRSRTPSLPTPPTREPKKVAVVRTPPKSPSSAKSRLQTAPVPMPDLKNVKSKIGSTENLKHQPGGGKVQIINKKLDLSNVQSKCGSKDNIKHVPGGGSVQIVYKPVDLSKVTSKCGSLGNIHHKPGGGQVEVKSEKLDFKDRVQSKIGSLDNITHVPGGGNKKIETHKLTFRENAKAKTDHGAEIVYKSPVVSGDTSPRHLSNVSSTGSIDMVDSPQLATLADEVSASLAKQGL

Row | Binder | Kd
1 | hu125B11 HC4 + hu113F5-F7 LC3 (antibody, V domains shown) VH: EVQLVESGGGLVQPGGSLRLSCAASRFIFSNYWMNWVRQAPGKGLEWVAQIRLKSDNYATHYAESVKGRFTISRDNSKNTLYLQMNSLRAEDTAVYYCTGGTTYWGQGTLVTVSS VL: DIQMTQSPSSLSASVGDRVTITCKASQNVGTAVAWYQQKPGKSPKLLIYSASRRFSGVPSRFSGSGSGTDFTLTISSLQPEDFATYYCQQFSTYPYTFGQGTKVEIK | 47 nM
2 | hu125B11 HC4 + hu113F5-F7 LC4 (antibody, V domains shown) VH: EVQLVESGGGLVQPGGSLRLSCAASRFIFSNYWMNWVRQAPGKGLEWVAQIRLKSDNYATHYAESVKGRFTISRDNSKNTLYLQMNSLRAEDTAVYYCTGGTTYWGQGTLVTVSS VL: DIQMTQSPSSLSASVGDRVTITCKASQNVGTAVAWYQQKPGKAPKLLIYSASRRFSGVPSRFSGSGSGTDFTLTISSLQPEDFATYYCQQFSTYPYTFGQGTKVEIK | 51 nM
3 | hu125B11 HC5 + 125B11 LC1 (antibody, V domains shown) VH: EVQLVESGGGLVQPGGSLRLSCAASRFIFSNYYMNWVRQAPGKGLEWVAQIRLKSDNYATHYAESVKGRFTISRDDSKNTVYLQMNSLRAEDTAVYYCTGGTTYWGQGTLVTVSS VL: DIQMTQSPSSLSASVGDRVTITCKASQNVGTAVAWYQQKPGKSPKLLIYSASIRYTGVPSRFSGSGSGTDFTLTISSLQPEDFATYFCQQFRTYPYTFGQGTKVEIK | 85 nM

Biological target: T2, full-length human Tau (flTau) (human, UniProt P10636-8 1-441)
T2 construct: range 1-441; bought (SignalChem); also called human Tau-441
T2 sequence (P10636 other isoform, or with tags, fused parts or gaps limits assumed): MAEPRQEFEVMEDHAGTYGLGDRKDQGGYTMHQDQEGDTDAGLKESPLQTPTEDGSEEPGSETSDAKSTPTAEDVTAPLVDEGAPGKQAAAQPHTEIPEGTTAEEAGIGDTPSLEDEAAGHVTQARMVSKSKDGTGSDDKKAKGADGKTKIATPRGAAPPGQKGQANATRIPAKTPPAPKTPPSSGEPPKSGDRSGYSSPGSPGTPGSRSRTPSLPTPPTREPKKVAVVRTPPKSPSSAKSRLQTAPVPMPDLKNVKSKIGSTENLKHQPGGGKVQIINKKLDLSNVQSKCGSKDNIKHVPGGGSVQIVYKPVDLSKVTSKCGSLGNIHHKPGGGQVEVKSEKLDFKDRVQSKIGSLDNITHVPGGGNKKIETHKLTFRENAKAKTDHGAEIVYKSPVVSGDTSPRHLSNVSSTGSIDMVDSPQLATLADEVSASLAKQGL
Test: SPR, hybridoma Ab on anti-IgG chip, flTau analyte
Method: Affinity of non-purified antibodies in serum-free hybridoma supernatants was estimated by surface plasmon resonance using a Biacore T-100 instrument (GE Healthcare, United Kingdom). Antibodies were immobilized onto an anti-IgG biosensor chip, and flTau (SignalChem, Canada) was used as the target analyte. Kinetic analysis was done using a 1:1 Langmuir fit model.
For affinity measurements to flTau, antibodies were measured using SPR on a Biacore instrument, with the KDs determined. Biacore affinity measurements were done by immobilizing antibodies on an anti-IgG chip and using flTau as the target analyte.

Row | Binder | Kd
4 | 26C1-C8 (antibody, V domains shown, hybridoma supernatant) VH: EVHLQQSGAELVRSGASVKLSCTASGFNIKDYYMYWVKQRPEQGLEWIGWIDPENGDTEYFPKFQGKATMTADTSSKTAYLQLSSLTSEDTAVYYCNAWRARATNSALDYWGQGTSVTVSS VL: not shown | 4.3 nM
5 | 231G3F10 (antibody, V domains shown) VH: EVRLVESGGGLVQPKGSLKLSCAASGFSFNTYAMNWVRQAPGKGLEWVARIRSKRNNFATYYADSVKDRFTISRDDSKSMLYLQMNNLKTEDTAMYYCVRWGYDDPYAMDYWGQGTSVTVSS VL: NIMMTQSPSSLAVSAGEKVTMSCKSSQSVLYSSNQKNYLAWYQQKPGQSPKLLIYWASARESGVPDRFTGSGSGTDFTLTISSVQAEDLAVYYCHQYFSSFTFGSGTKLEIK | 0.2 nM
6 | 49G10-F4 (antibody, V domains shown, hybridoma supernatant) VH: QVQLQQPGAELVQPGASVKLSCKASGYTFTNYWMQWIKQRPGQGLEWIGEIDPSDSYTNYNQNFKDKATLTVDTSSRTAYMQLSSLTSEDSAVYYCTRRWYINSVRYFDVWGTGTTVTVSA VL: DVLMTQTPLSLSASLGDQASISCRSSQSIVHSNGNIYLEWYLQKPGQSPKLLIYKVSNRFSGVSDRFSGSGSGTDFTLKISRVEAEDLGVYYCFQGAHVPFTFGAGTKLEIK | 1 nM
7 | 63H3-D8 (antibody, V domains shown, hybridoma supernatant) VH: QIQLVQSGPELKKPGETVKISCKASGYTFTSHGMSWVKQAPGKGLKWMGWINTYSGVPTYADDFKGRFAFSLETSASTAYLQINNLKNEDTATYFCARSELSWFAYWGQGTLVTVSA VL: DIVMTQSPATLSVTPGDRVSLSCRASQSISDYLHWYQQKSHESPRLLIKYASQSISGIPSRFSGSGSGSDFTLSINSVEPEDVGVYYCQNGHSFPYTFGGGTKLEIK | 0.5 nM
8 | 64B9-F12 (antibody, V domains shown, hybridoma supernatant) VH: QIQLVQSGPELRKPGETVKISCKASGYTFTTYGMSWVKQAPGEGLKWMGWINTYSGMPTYADDFKGRFAFSLETSARTAYLQINNLKNEDTATYFCARSELSWFAYWGQGTLVTVSA VL: DIVMTQSPATLSVTPGDRVSLSCRASQSISDYLHWYQQKSHESPRLLIKYASQSISGIPSRFSGSGSGSDFTLSINSVEPEDVGVYYCQNGHNFPYTFGGGTKLEIK | 2 nM
9 | 52F6-F11 (antibody, V domains shown, hybridoma supernatant) VH: QVQLQQSGTELAKPGASVKLSCKASGYTFTHYWMHWIKQRPGQGLEWIGYIYPTNDYTKYNQNFRDKATLTADESSNSAYMQLNSLTYEDSAVYYCARAGNRVFDFWGQGTTLTVSS VL: QAVVTQESALTTSPGETVTLTCRSSTGAVTTSNFANWVQEKPDHLFTGLIGGTNNRAPGVPARFSGSLIGDKAALTITGAQTEDEAIYFCALWYSNLWVFGGGTKLTVL | 8.4 nM
10 | 65B1-A2 (antibody, V domains shown, hybridoma supernatant) VH: QVQLKESGPGLVAPSQSLSITCTISGFSLTTYGVHWVRQPPGKGLEWLVVIWSDGSTTYNSALKSRLSISKDNSKSQVFLKMNSLQTDDTAMYYCARQGGFITTAYYAMDYWGQGTSVTVSS VL: DIVMSQSPSSLAVSAGEKVTMSCKSSQSLLNSRTRKNYLAWYQQKPGQSPKLLIYWASTRESGVPDRFTGSGSGTDFTLTISSVQAEDLAVYYCKQSYNLYTFGGGTKLEIK | 0.8 nM
11 | 113F5-F7 (antibody, V domains shown, hybridoma supernatant) VH: EVKLEESGGGLVQPGGSMRLSCVASEFTFSNYWMNWIRQSPEKGLEWVAQIRLKSDNYATHYAESVKGRFTISRDASNFSVYLQMNNLRAEDTGIYYCTGGTSYWGQGTTLTVSS VL: DIVMTQSQKIMSTSVGDRVSITCKASQNVGTAVAWYQQRPGHSPKLLIYSASRRFSGVPDRFTGSGSGTDFTLTIINVQSEDLADYFCQQFSTYPYTFGVGTKLEIK | 2.4 nM
12 | 7A11-C12 (antibody, V domains shown, hybridoma supernatant) VH: QIQLVQSGPDLKKPGETVKISCKASGYTFTNYGMNWVKQAPGKGLKWMGWINTNTGEPTYAEEFKGRFAFSLETSASTAYLQIDNLKNEDTATYFCARGTVSFPYWGQGTLVTVSA VL: DVVMSQTPLSLPVSLGDHASISCRSSQNLVHSDGNTYLHWYLQKPGQSPKLLIYKVSNRFSGVPDRFSGSGSGTDFTLKISRVEAEDLGVYFCSQSTHVIFTFGSGTKLEIK | 0.5 nM
13 | 307H3E8 (antibody, V domains shown) VH: EVKFEESGGGLVQPGGSMKLSCVASGFTFSNYWMNWVRQSPEKGLEWVAQIRLKSDNHATHYAESVKGRFTISRDDSKSTVYLQMNNLGAEDTGIYFCTEGGAYFDYWGQGTTLTVSS VL: DVVMTQTPLSLPVSLGDQASISCRSSQNLVHSNGNTYFHWYLQKPGQSPKLLIYKVSNRFSGVPDRFSGSGSGTDFTLKISRVEAEDLGVYVCSQSTHVPPTFGGGTKLEIK | 1 nM
14 | 22G7-C9 (antibody, V domains shown, hybridoma supernatant) VH: QIQLVQSGPELKKPGETVKISCKASGYTFTDCSIHWVKQAPGEGLKWMGWINTETGEPSYADDFKGRFAFSLETSASTAFLQINNLKSEDTASYFCGTAYYRYDGALDYWGQGTSVTVSS VL: DIVLTQSPASLAVSLGQRATISCRASQSVSTSSYSYMHWFQQKPGQPPKLLIKYASNLESGVPARFSGSGSGTDFTLNIHPVEEEDTATYYCQHSWELPWTFGGGTKLEIK | 36 nM
15 | 61E7-C4 (antibody, V domains shown, hybridoma supernatant) VH: EVQLVESGGDLVKPGGSLKVSCVASGFTFRSYGMSWVRQTPDKRLDWVATISSGGNYTYYPDSVKGRFTISRDNAKNTLYLQMSSLKSEDTAMYYCASSYSGAMDYWGQGTSVTVSS VL: DTVMTQSPLSLPVSLGDQASISCRSSQSIVHSNGNTYLEWYLQKPGQSPKLLIYTVSNRFSGVPDRFSGSGSGTDFTLKISRVEAEDLGVYYCFQGSHVPWTFGGGTKLEIK | 3.3 nM
16 | 30A1-C9 (antibody, V domains shown, hybridoma supernatant) VH: GVQLQQSGPELVKPGASVKISCKTSGYTFTEYTMHWMKQSHGKSLEWIGGIDPNTGNTNYNQKFKGKATLTVDKSSSTAYMDLRSLTSEDSAVYYFYGSGYWGQGTILTVSS VL: DVLMTQSPLSLPVSLGDQASISCRSSQSIVHSNGNTYLEWFLQKPGQSPKLLIYKVSNRFSGVPDRFSGSGSGTDFTLKISRVEAEDLGVYYCFQASHVPRTFGGGTKLEIK | 0.6 nM
17 | 19F8-B1 (antibody, V domains shown, hybridoma supernatant) VH: EVQLQQSGPELVKPGASVKMSCKASGYTFTDYYMKWVKQSHGKSLEWIGDLNPNNGGTLYNQKFKGQATLTVDKSSSTAYMQFNSLTSEDSAVYYCARSAGYGDSFAYWGQGTLVTVSA VL: DVLMTQTPLSLPVSLGDQASISCRSSQNIVHSNGNTYLEWYLQKPGQSPKLLIYKVSNRFSGVPDRFSGSGSGTDFTLKISRVEAEDLGIYFCFQGSHVPPTFGGGTKLEIK | 2.9 nM
18 | 24A11-D5 (antibody, V domains shown, hybridoma supernatant) VH: EVQLQQSGPELVKPGASVKMSCKASGYTFTDYYMKWVKQSHGKSLEWIGDLNPKNGGIIYNQKFKGQATLTVDKSSSTAYMQLNSLTSEDSAVFYCARSGGYGDSFAYWGQGTLVTVSA VL: DVLMTQTPLSLPVSLGDQASISCRSSQNIVHSNGNTYLEWYLQKPGQSPKLLIYKVSNRFSGVPDRFSGSGSGTDFTLKISRVEAEDLGIYFCFQGSHVPPTFGGGTKLEIK | 2 nM
19 | 83E10-D6 (antibody, V domains shown, hybridoma supernatant) VH: EVQLQQSGAELVRSGASVKLSCTASGFNIKDYYIQWVKQRPEQGLEWIGWIDPENGDTDYAPKFQGKATMTADTSSNTAYLQFSSLTSEDTAVYYCNRGWGYWGQGTTLTVSS VL: not shown | 0.4 nM
20 | 71H8-D6 (antibody, V domains shown, hybridoma supernatant) VH: EVQLQQSGAELVRSGASVKLSCTASGFNIKDYYIQWVKQRPEQGLEWIGWIDPENGDTDYAPKFQGKATMTADTSSNTAYLQFSSLTSEDTAVYYCNRGWGYWGQGTTLTVSS VL: not shown | 0.8 nM
